B1: 21S rRNA promoter (+1+2 AG), 2-AP at -1 template (dsDNA)
DNA 1: TATTATTATTATTATATATATAAGTAGTAAAAAGTAGAATAATCT
DNA 2: AGATTATTCTACTTTTTACTACTTATATATATAATAATAATAATA
modifications: 2-aminopurine at -1 template
B2: 15S rRNA promoter (+1+2 AA), 2-AP at -1 template (dsDNA)
DNA 1: ATAATTTATTTATTATTATATAAGTAATAAATAATAGTTTTATCT
DNA 2: AGATAAAACTATTATTTATTACTTATATAATAATAAATAAATTAT
modifications: 2-aminopurine at -1 template

Columns and labels:
Settings in all cases: protein: recombinant;recombinant; tags: Ni2+ column purified; copies: 1;1; label: 2-aminopurine
[1] = target: T1, Rpo41 (mitochondrial RNA polymerase);Mtf1 (mitochondrial transcription initiation factor) (Saccharomyces cerevisiae;Saccharomyces …, UniProt P13433;P14908 1-1351;2-341, |); test: 2-aminopurine fluorescence; no NTP; 2-AP assay buffer, salt, pH and temperature not in the material (transcription assays at 25 C)
[2] = target: T1, Rpo41 (mitochondrial RNA …); test: 2-aminopurine fluorescence; ATP+GTP; 2-AP assay buffer, salt, pH and temperature not in the material (transcription assays at 25 C)
[3] = target: T1, Rpo41 (mitochondrial RNA …); test: 2-aminopurine fluorescence; ATP; 2-AP assay buffer, salt, pH and temperature not in the material (transcription assays at 25 C)

T1 sequence (P13433 whole entry, chain 1 of 2): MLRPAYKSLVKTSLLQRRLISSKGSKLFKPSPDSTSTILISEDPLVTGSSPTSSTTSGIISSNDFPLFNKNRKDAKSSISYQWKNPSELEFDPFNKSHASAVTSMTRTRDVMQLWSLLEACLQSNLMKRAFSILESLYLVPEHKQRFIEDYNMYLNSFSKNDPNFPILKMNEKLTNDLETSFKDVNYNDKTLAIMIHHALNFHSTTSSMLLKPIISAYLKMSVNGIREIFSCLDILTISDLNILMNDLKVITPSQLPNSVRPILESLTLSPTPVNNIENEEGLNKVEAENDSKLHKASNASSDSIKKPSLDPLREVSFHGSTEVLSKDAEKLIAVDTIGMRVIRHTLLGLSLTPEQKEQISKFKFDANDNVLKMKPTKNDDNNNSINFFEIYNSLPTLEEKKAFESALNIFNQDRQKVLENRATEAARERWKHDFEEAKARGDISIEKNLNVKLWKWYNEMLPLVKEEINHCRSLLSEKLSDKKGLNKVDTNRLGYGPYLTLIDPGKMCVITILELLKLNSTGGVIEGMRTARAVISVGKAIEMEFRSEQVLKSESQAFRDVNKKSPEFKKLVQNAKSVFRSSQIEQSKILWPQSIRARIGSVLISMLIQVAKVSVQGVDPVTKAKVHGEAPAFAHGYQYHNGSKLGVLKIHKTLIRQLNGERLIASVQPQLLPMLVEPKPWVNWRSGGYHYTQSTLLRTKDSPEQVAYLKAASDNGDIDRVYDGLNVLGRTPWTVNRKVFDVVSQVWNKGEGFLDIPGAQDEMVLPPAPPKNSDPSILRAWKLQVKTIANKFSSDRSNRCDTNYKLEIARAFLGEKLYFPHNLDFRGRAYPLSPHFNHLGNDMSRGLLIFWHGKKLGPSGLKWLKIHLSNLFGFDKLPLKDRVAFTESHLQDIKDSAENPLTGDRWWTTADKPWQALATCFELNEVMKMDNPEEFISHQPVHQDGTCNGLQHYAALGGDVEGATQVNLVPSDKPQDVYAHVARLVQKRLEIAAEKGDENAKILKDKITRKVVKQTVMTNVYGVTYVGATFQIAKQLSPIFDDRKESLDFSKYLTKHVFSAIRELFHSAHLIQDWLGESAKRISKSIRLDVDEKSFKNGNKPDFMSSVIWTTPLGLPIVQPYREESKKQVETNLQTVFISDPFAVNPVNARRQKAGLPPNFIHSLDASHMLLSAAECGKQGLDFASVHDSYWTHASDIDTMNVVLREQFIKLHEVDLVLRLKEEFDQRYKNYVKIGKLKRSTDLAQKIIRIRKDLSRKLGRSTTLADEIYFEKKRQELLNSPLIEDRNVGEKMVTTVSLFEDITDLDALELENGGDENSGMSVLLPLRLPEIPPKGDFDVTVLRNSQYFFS
T1 sequence (P14908 2-341, chain 2 of 2): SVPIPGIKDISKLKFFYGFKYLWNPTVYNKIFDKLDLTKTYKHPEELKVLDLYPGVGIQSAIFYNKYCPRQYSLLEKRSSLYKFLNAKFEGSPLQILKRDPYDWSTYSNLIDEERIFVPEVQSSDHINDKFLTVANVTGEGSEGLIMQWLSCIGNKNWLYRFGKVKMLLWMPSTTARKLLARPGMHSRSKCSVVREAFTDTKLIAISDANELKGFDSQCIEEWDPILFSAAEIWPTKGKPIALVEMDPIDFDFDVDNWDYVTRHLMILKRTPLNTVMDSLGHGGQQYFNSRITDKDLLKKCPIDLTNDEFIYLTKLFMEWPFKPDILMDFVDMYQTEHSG

Binder | binding signal [1] | binding signal [2] | binding signal [3]
B1 | ~5 fold 2-AP fluorescence increase | ~4 further fold 2-AP fluorescence increase over the complex without NTP | –
B2 | ~5 fold 2-AP fluorescence increase | – | ~4 further fold 2-AP fluorescence increase over the complex without NTP
